# Assay results taken from PMC5035230 (Biochimica et biophysica acta, 2016).
# Residue numbers refer to the chain shown, from its start. Names and notes keep the numbering of the source.
# B1: P453L-hE3 (pathogenic variant of human dihydrolipoamide dehydrogenase) (enzyme, UniProt P09622 36-509, looked up)
# chain: ADQPIDADVTVIGSGPGGYVAAIKAAQLGFKTVCIEKNETLGGTCLNVGCIPSKALLNNSHYYHMAHGKDFASRGIEMSEVRLNLDKMMEQKSTAVKALTGGIAHLFKQNKVVHVNGYGKITGKNQVTATKADGGTQVIDTKNILIATGSEVTPFPGITIDEDTIVSSTGALSLKKVPEKMVVIGAGVIGVELGSVWQRLGADVTAVEFLGHVGGVGIDMEISKNFQRILQKQGFKFKLNTKVTGATKKSDGKIDVSIEAASGGKAEVITCDVLLVCIGRRPFTKNLGLEELGIELDPRGRIPVNTRFQTKIPNIYAIGDVVAGPMLAHKAEDEGIICVEGMAGGAVHIDYNCVPSVIYTHPEVAWVGKSEEQLKEEGIEYKVGKFPFAANSRAKTNADTDGMVKILGQKSTDRVLGAHILGPGAGEMVNEAALALEYGASCEDIARVCHAHLTLSEAFREANLAASFGKSINF
# B2: G194C-hE3 (pathogenic variant of human dihydrolipoamide dehydrogenase) (enzyme, UniProt P09622 36-509, looked up)
# chain: B1 chain with G194C, L453P
# B3: R447G-hE3 (pathogenic variant of human dihydrolipoamide dehydrogenase) (enzyme, UniProt P09622 36-509, looked up)
# chain: B1 chain with R447G, L453P
# B4: I358T-hE3 (pathogenic variant of human dihydrolipoamide dehydrogenase) (enzyme, UniProt P09622 36-509, looked up)
# chain: B1 chain with I358T, L453P
# B5: D444V-hE3 (pathogenic variant of human dihydrolipoamide dehydrogenase) (enzyme, UniProt P09622 36-509, looked up)
# chain: B1 chain with D444V, L453P
# B6: K37E-hE3 (pathogenic variant of human dihydrolipoamide dehydrogenase) (enzyme, UniProt P09622 36-509, looked up)
# chain: B1 chain with K37E, L453P
# B7: R460G-hE3 (pathogenic variant of human dihydrolipoamide dehydrogenase) (enzyme, UniProt P09622 36-509, looked up)
# chain: B1 chain with L453P, R460G
# B8: I445M-hE3 (pathogenic variant of human dihydrolipoamide dehydrogenase) (enzyme, UniProt P09622 36-509, looked up)
# chain: B1 chain with I445M, L453P
# B9: E340K-hE3 (pathogenic variant of human dihydrolipoamide dehydrogenase) (enzyme, UniProt P09622 36-509, looked up)
# chain: B1 chain with E340K, L453P
# B10: I318T-hE3 (pathogenic variant of human dihydrolipoamide dehydrogenase) (enzyme, UniProt P09622 36-509, looked up)
# chain: B1 chain with I318T, L453P
# Biological target: the molecule itself
# Assay: HDX-MS
row,Protein,binding result
1,B1,binds
2,B2,binds
3,B3,binds
4,B4,binds
5,B5,binds
6,B6,binds
7,B7,binds
8,B8,binds
9,B9,binds
10,B10,binds
